Results from patent US20190330277A1 (PIRBRIGHT INSTITUTE, published 2019).

Tests used:
[1] = target: T1, 391-2 hu/bov-DS-Cav1-BZGJ9 Long; test: ELISA, variant from culture supernatant on Ni-NTA plate;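 note: antigenic evaluation by ELISA of constructs expressed at small scale in 96-well plates after transient plasmid transfection of cells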
T1 construct: also called sc-v18
Method: (§1) Initial assessment of all constructs were performed using a 96-well microplate format for high throughput expression followed by an ELISA-based antigenic evaluation as described previously 17. […] Plasmid DNA and TrueFect-Max (United BioSystems, MD) were mixed and added to the growing cells, and the 96-well plate incubated at 37° C., 5% CO2. One day post transfection, enriched medium (high glucose DMEM plus 25% ultra-low IgG fetal bovine serum, 2× nonessential amino acids, 1× glutamine) was added to each well, and the 96-well plate was returned to the incubator for continuous culture.

KXint1 = target: T2, KXint1; test: as above
T2 construct: also called sc-v29
Method: as §1

391-2-DS-Cav1-BZGJ9_gyc7 = target: T3, 391-2-DS-Cav1-BZGJ9_gyc7; test: as above
T3 construct: also called sc-v27
Method: as §1

391-2-DSCav1- F-SC_7R = target: T4, 391-2-DSCav1- F-SC_7R; test: as above
T4 construct: also called sc-v36
Method: as §1

[2] = target: T5, 391-2-DS-Cav1-BZGJ9 Long S190V; test: as above
T5 construct: also called sc-v23
Method: as §1

391-2wt-F_SC_11R = test: as above
Method: as §1

[3] = target: T6, sc9-10_DS-CAV1_bRSV(RB94)_Fd_hp1_ig1; test: as above
T6 construct: also called sc-v2
Method: as §1

[4] = target: T7, RB94 site 0 hRSV bovSurf DS-Cav1 Long FdPL; test: as above
T7 construct: also called sc-v14
Method: as §1

[5] = target: T8, RB94 site 0 hRSV DS-Cav1 Long FdPL; test: as above
T8 construct: also called sc-v22
Method: as §1

391-2-DS-Cav1-IP-4 = target: T9, 391-2-DS-Cav1-IP-4; test: as above
T9 construct: also called sc-v32
Method: as §1

391-2_DS-Cav1-tzsc3 = target: T10, 391-2_DS-Cav1-tzsc3; test: as above
T10 construct: also called sc-v33
Method: as §1

RB94 DS-Cav1 Long FdPL = target: T11, RB94 DS-Cav1 Long FdPL; test: as above
T11 construct: also called sc-v31
Method: as §1

[6] = target: T12, sc9-10_DS-CAV1_bRSV(RB94)_Fd_hp2_ig1; test: as above
T12 construct: also called sc-v3
Method: as §1

KXlinker2 = target: T13, KXlinker2; test: as above
T13 construct: also called sc-v35
Method: as §1

391-2-DS-Cav1-IP-5 = target: T14, 391-2-DS-Cav1-IP-5; test: as above
T14 construct: also called sc-v19
Method: as §1

391-2-DS-Cav1-BZGJ9 Long = target: T15, 391-2-DS-Cav1-BZGJ9 Long; test: as above
T15 construct: also called sc-v17
Method: as §1

[7] = target: T16, sc9-10_DS-CAV1_bRSV(RB94)_Fd_pm1_ig1; test: as above
T16 construct: also called sc-v11
Method: as §1

[8] = target: T17, 391-2-site 0 hRSV DSCav1-BZGJ9 Long; test: as above
T17 construct: also called sc-v9
Method: as §1

[9] = target: T18, 391-2-DS-Cav1-BZGJ9 Long K226L; test: as above
T18 construct: also called sc-v12
Method: as §1

[10] = target: T19, sc9-10_DS-CAV1_bRSV(RB94)_Fd_hp1_fp1_ig1; test: as above
T19 construct: also called sc-v8
Method: as §1

391-2_DS-Cav1-tzsc5 = target: T20, 391-2_DS-Cav1-tzsc5; test: as above
T20 construct: also called sc-v25
Method: as §1

[11] = target: T21, sc9-10_DS-CAV1_bRSV(RB94)_Fd_hp2_fp1_ig1; test: as above
T21 construct: also called sc-v5
Method: as §1

KXlinker1 = target: T22, KXlinker1; test: as above
T22 construct: also called sc-v30
Method: as §1

391-2wt_F-SC_12R core = target: T23, 391-2wt_F-SC_12R core; test: as above
T23 construct: also called sc-v28
Method: as §1

391-2_DS-Cav1-tzsc2 = target: T24, 391-2_DS-Cav1-tzsc2; test: ELISA, variant from culture supernatant on Ni-NTA plate [continued]
T24 construct: also called sc-v57
Method: as §1

KXsb2 = target: T25, KXsb2; test: as above
T25 construct: also called sc-v56
Method: as §1

391-2-DS-Cav1-BZGJ9_gyc2 = target: T26, 391-2-DS-Cav1-BZGJ9_gyc2; test: as above
T26 construct: also called sc-v48
Method: as §1

[12] = target: T27, RB94_sc9-10 DS-CAV1 L373R; test: as above
T27 construct: also called sc-v38
Method: as §1

391-2-DS-Cav1-IP-2 = target: T28, 391-2-DS-Cav1-IP-2; test: as above
T28 construct: also called sc-v40
Method: as §1

[13] = target: T29, sc9-10_DS-CAV1_bRSV(RB94)_Fd_(hRSV-leader)_ig1; test: as above
T29 construct: also called sc-v43
Method: as §1

391-2_DS-Cav1-tzsc9 = target: T30, 391-2_DS-Cav1-tzsc9; test: as above
T30 construct: also called sc-v52
Method: as §1

391-2-DS-Cav1- F-SC_11R = target: T31, 391-2-DS-Cav1- F-SC_11R; test: as above
T31 construct: also called sc-v54
Method: as §1

[14] = target: T32, RB94 DS-CAV1 N70K S104F K117T; test: as above
T32 construct: also called sc-v41
Method: as §1

Binder	ELISA binding value [1]	ELISA binding value (KXint1)	ELISA binding value (391-2-DS-Cav1-BZGJ9_gyc7)	ELISA binding value (391-2-DSCav1- F-SC_7R)	ELISA binding value [2]	ELISA binding value (391-2wt-F_SC_11R)	ELISA binding value [3]	ELISA binding value [4]	ELISA binding value [5]	ELISA binding value (391-2-DS-Cav1-IP-4)	ELISA binding value (391-2_DS-Cav1-tzsc3)	ELISA binding value (RB94 DS-Cav1 Long FdPL)	ELISA binding value [6]	ELISA binding value (KXlinker2)	ELISA binding value (391-2-DS-Cav1-IP-5)	ELISA binding value (391-2-DS-Cav1-BZGJ9 Long)	ELISA binding value [7]	ELISA binding value [8]	ELISA binding value [9]	ELISA binding value [10]	also measured
MPE8 antibody (antibody, V domains shown, also called mAb MPE8) VH: EVQLVESGGGLVKPGGSLRLSCAASGFTFSSYSMNWVRQAPGKGLEWVSSISASSSYSDYADSAKGRFTISRDNAKTSLFLQMNSLRAEDTAIYFCARARATGYSSITPYFDIWGQGTLVTVSS VL: QSVVTQTPSVSGAPGQRVTISCTGSSSNIGAGYDVHWYQQLPGTAPKLLIYDNNNRPSGVPDRFSASKSGTSASLAITGLQAEDEADYYCQSYDRNLSGVFGTGTKVTVL	1.32	0.599	0.821	0.312	1.19	0.887	2.18	1.84	1.39	0.541	0.433	0.489	2.21	0.361	1.41	1.45	1.87	2.08	1.78	2.16	ELISA binding value (391-2_DS-Cav1-tzsc5): 1.22; ELISA binding value [11]: 2.25; ELISA binding value (KXlinker1): 0.544; ELISA binding value (391-2wt_F-SC_12R core): 0.646; ELISA binding value (391-2_DS-Cav1-tzsc2): 0.109; ELISA binding value (KXsb2): 0.0752; ELISA binding value (391-2-DS-Cav1-BZGJ9_gyc2): 0.12; ELISA binding value [12]: 0.258; ELISA binding value (391-2-DS-Cav1-IP-2): 0.217; ELISA binding value [13]: 0.105; ELISA binding value (391-2_DS-Cav1-tzsc9): 0.1; ELISA binding value (391-2-DS-Cav1- F-SC_11R): 0.0668; ELISA binding value [14]: 0.201
D25 antibody (antibody, V domains shown, also called mAb D25) VH: QVQLVQSGAEVKKPGSSVMVSCQASGGPLRNYIINWLRQAPGQGPEWMGGIIPVLGTVHYAPKFQGRVTITADESTDTAYIHLISLRSEDTAMYYCATETALVVSTTYLPHYFDNWGQGTLVTVSS VL: DIQMTQSPSSLSAAVGDRVTITCQASQDIVNYLNWYQQKPGKAPKLLIYVASNLETGVPSRFSGSGSGTDFSLTISSLQPEDVATYYCQQYDNLPLTFGGGTKVEIK	1.39	0.416	0.732	0.225	1.13	0.739	2.44	1.7	1.02	0.333	0.383	0.392	2.43	0.321	1.28	1.3	1.86	2.02	1.92	2.17	ELISA binding value (391-2_DS-Cav1-tzsc5): 0.662; ELISA binding value [11]: 2.17; ELISA binding value (KXlinker1): 0.399; ELISA binding value (391-2wt_F-SC_12R core): 0.709; ELISA binding value (391-2_DS-Cav1-tzsc2): 0.0883; ELISA binding value (KXsb2): 0.132; ELISA binding value (391-2-DS-Cav1-BZGJ9_gyc2): 0.144; ELISA binding value [12]: 0.27; ELISA binding value (391-2-DS-Cav1-IP-2): 0.197; ELISA binding value [13]: 0.197; ELISA binding value (391-2_DS-Cav1-tzsc9): 0.132; ELISA binding value (391-2-DS-Cav1- F-SC_11R): 0.161; ELISA binding value [14]: 0.17
